# Measured values: patent publication US6416987B1, “Mutants of thymidylate synthase and uses thereof” (Sloan Kettering Institute for Cancer Research, priority 1997, dated 2002)
# Residue numbers refer to the chain shown, from its start. Names and notes keep the numbering of the source.
# B1: F225S: human TS mutant Phe225→Ser (protein)
# chain: MPVAGSELPRRPLPPAAQERDAEPRPPHGELQYLGQIQHILRCGVRKDDRTGTGTLSVFGMQARYSLRDEFPLLTTKRVFWKGVLEELLWFIKGSTNAKELSSKGVKIWDANGSRDFLDSLGFSTREEGDLGPVYGFQWRHFGAEYRDMESDYSGQGVDQLQRVIDTIKTNPDDRRIIMCAWNPRDLPLMALPPCHALCQFYVVNSELSCQLYQRSGDMGLGVPSNIASYALLTYMIAHITGLKPGDFIHTLGDAHIYLNHIEPLKIQLQREPRPFPKLRILRKVGKIDDFKAEDFQIEGYNPHPTIKMEMAV
# B2: L221F: human TS mutant Leu221→Phe (protein)
# chain: B1 chain with L221F, S225F
# B3: pcDNA3hTS270: human TS mutant Ile108→Gly (protein, UniProt P04818 2-313, looked up, variant I108G)
# Thymidylate synthase: PVAGSELPRRPLPPAAQERDAEPRPPHGELQYLGQIQHILRCGVRKDDRTGTGTLSVFGMQARYSLRDEFPLLTTKRVFWKGVLEELLWFIKGSTNAKELSSKGVKGWDANGSRDFLDSLGFSTREEGDLGPVYGFQWRHFGAEYRDMESDYSGQGVDQLQRVIDTIKTNPDDRRIIMCAWNPRDLPLMALPPCHALCQFYVVNSELSCQLYQRSGDMGLGVPFNIASYALLTYMIAHITGLKPGDFIHTLGDAHIYLNHIEPLKIQLQREPRPFPKLRILRKVEKIDDFKAEDFQIEGYNPHPTIKMEMAV
# B4: pcDNA3hTS272: human TS mutant Ile108→Asn (protein, UniProt P04818 2-313, looked up, variant I108N)
# Thymidylate synthase: B3 Thymidylate synthase with G107N
# B5: pcDNA3hTS271: human TS mutant Ile108→Glu (protein, UniProt P04818 2-313, looked up, variant I108E)
# Thymidylate synthase: B3 Thymidylate synthase with G107E
# B6: F59L: human TS mutant Phe59→Leu (protein)
# chain: B1 chain with F59L, S225F
# B7: L221R: human TS mutant Leu221→Arg (protein)
# chain: B1 chain with L221R, S225F
# B8: Q214R: human TS mutant Gln214→Arg (protein)
# chain: B1 chain with Q214R, S225F
# Test system: Mouse TS-negative cells (FSthy21)
# Experiment: Rescue of TS-negative cells by transfection of human TS cDNAs
# Format: cell-based
# Details: selective medium lacking thymidine
# Text: Mouse TS-negative cells (FSthy21) were transfected with a plasmid (pcDNA3hTS*) encoding wild-type or a various mutant human TS enzyme by standard DOTAP transfection procedures. The host cells are deficient in TS, which are unable to survive without exogenous thymidine. […] In contrast, cells were unable to survive with transfection of other 11 human TS variants. For each surviving transfectant, at least 12 individual clones were isolated by soft agar or limiting dilution in 96-well plates. Those clones were expanded to cell lines by growth in normal media. Three cell clones for each transfectant were randomly selected for drug sensitivity assay.
row,Molecule,TS catalytic function / complementation of growth of TS-negative cells
1,B1,severely diminished TS catalytic activity
2,B2,inactive

# Same assay, conditions: selective medium without thymidine
row,Molecule,FM3A TS cells surviving by transfection
1,B3,no
2,B4,no
3,B5,no
4,B1,no
5,B6,no
6,B7,no
7,B8,no
8,B2,no
